Experimental data from patent US20100154070.

System: piggyBac transposase (PBase) (Trichoplusia ni)
Test: cell_activity

In the case of “PB[Act-RFP] donor transposon (PBL/PBR termini)”, the activity (% transposon single-positive founders) (mouse pronuclear co-injection with Act-PBase, 10.4% without helper, precise excision in male germline shown with Prm1-PBase (p230)) is reported as 34.8.
“PB[SV40-neo] donor transposon (PBL/PBR termini)” was tested, and the activity (human 293 cells, CMV-PBase helper, scale: fold G418-resistant clones vs donor alone) was 10.
With “PB[PGK-neo] donor transposon (PBL/PBR termini)” the activity (mouse W4/129S6 ES cells, Act-PBase helper, scale: fold drug-resistant clones vs donor alone) was 50.
PB[K14-Tyr, Act-RFP] donor transposon gave an activity (% founders with transposition) (mouse, 26/31 founders, Act-PBase) of 83.9.
